Laboratory results reported in the supplement of paper PMC5998384.

How the values were obtained:
HeLa Kyoto [1] = assay: solubility in G1/S (NP-40 vs SDS abundance) (log2 ratio); higher = more soluble; conditions: cell cycle stage: G1/S
HeLa Kyoto [2] = assay: solubility change mitosis vs G1/S (difference of NP-40 vs SDS log2 ratios) (log2 ratio difference); higher = more soluble in mitosis
HeLa Kyoto [3] = assay: thermal stability score vs G1/S (z-score of summed log2 fold changes over temperatures); higher = more thermally stable than in G1/S
HeLa Kyoto [4] = assay: melting temperature (median over replicates), in situ; higher = more thermally stable
[5] = cell cycle stage: early G1 (4.5 h after nocodazole release)
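For melting temperature (median over replicates), in situ in this document: HeLa Kyoto cells synchronized by double thymidine or nocodazole block, proteins quantified by TMT10plex mass spectrometry, three independent biological replicates.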
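For solubility change mitosis vs G1/S (difference of NP-40 vs SDS log2 ratios) in this document: synchronized HeLa Kyoto cells (double thymidine block for G1/S, nocodazole release for mitosis), protein amounts in NP-40 versus SDS lysates quantified by mass spectrometry, three biological replicates.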
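For solubility in G1/S (NP-40 vs SDS abundance) in this document: HeLa Kyoto cells arrested at G1/S by double thymidine block, proteins quantified by TMT10plex mass spectrometry in mild NP-40 versus SDS extracts, three biological replicates.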
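For thermal stability score vs G1/S (z-score of summed log2 fold changes over temperatures) in this document: synchronized HeLa Kyoto cells, proteins quantified by TMT10plex mass spectrometry, three biological replicates, mitosis taken 0.5 h after nocodazole release, G1/S directly after double thymidine block.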

Sequence	solubility in G1/S (log2) (HeLa Kyoto [1])	solubility change mitosis (log2) (HeLa Kyoto [2])	thermal stability score (HeLa Kyoto [3]; [5])	thermal stability score (HeLa Kyoto [3]; cell cycle stage: mitosis)	melting temperature (HeLa Kyoto [4]; cell cycle stage: G1/S) [°C]	melting temperature (HeLa Kyoto [4]; cell cycle stage: mitosis) [°C]
MQNYKYDKAIVPESKNGGSPALNNNPRRSGSKRVLLICLDLFCLFMAGLPFLIIETSTIKPYHRGFYCNDESIKYPLKTGETINDAVLCAVGIVIAILAIITGEFYRIYYLKKSRSTIQNPYVAALYKQVGCFLFGCAISQSFTDIAKVSIGRLRPHFLSVCNPDFSQINCSEGYIQNYRCRGDDSKVQEARKSFFSGHASFSMYTMLYLVLYLQARFTWRGARLLRPLLQFTLIMMAFYTGLSRVSDHKHHPSDVLAGFAQGALVACCIVFFVSDLFKTKTTLSLPAPAIRKEILSPVDIIDRNNHHNMM [PLPP3]	-0.0783	-0.139	-1.69	5.11	57	55.7
MQRALPGARQHLGAILASASVVVKALCAAVLFLYLLSFAVDTGCLAVTPGYLFPPNFWIWTLATHGLMEQHVWDVAISLTTVVVAGRLLEPLWGALELLIFFSVVNVSVGLLGAFAYLLTYMASFNLVYLFTVRIHGALGFLGGVLVALKQTMGDCVVLRVPQVRVSVMPMLLLALLLLLRLATLLQSPALASYGFGLLSSWVYLRFYQRHSRGRGDMADHFAFATFFPEILQPVVGLLANLVHSLLVKVKICQKTVKRYDVGAPSSITISLPGTDPQDAERRRQLALKALNERLKRVEDQSIWPSMDDDEEESGAKVDSPLPSDKAPTPPGKGAAPESSLITFEAAPPTL [TMEM115]	-0.146	0.0464	-2.84	-3.54	55.8	–
MQSTSNHLWLLSDILGQGATANVFRGRHKKTGDLFAIKVFNNISFLRPVDVQMREFEVLKKLNHKNIVKLFAIEEETTTRHKVLIMEFCPCGSLYTVLEEPSNAYGLPESEFLIVLRDVVGGMNHLRENGIVHRDIKPGNIMRVIGEDGQSVYKLTDFGAARELEDDEQFVSLYGTEEYLHPDMYERAVLRKDHQKKYGATVDLWSIGVTFYHAATGSLPFRPFEGPRRNKEVMYKIITGKPSGAISGVQKAENGPIDWSGDMPVSCSLSRGLQVLLTPVLANILEADQEKCWGFDQFFAETSDILHRMVIHVFSLQQMTAHKIYIHSYNTATIFHELVYKQTKIISSNQELIYEGRRLVLEPGRLAQHFPKTTEENPIFVVSREPLNTIGLIYEKISLPKVHPRYDLDGDASMAKAITGVVCYACRIASTLLLYQELMRKGIRWLIELIKDDYNETVHKKTEVVITLDFCIRNIEKTVKVYEKLMKINLEAAELGEISDIHTKLLRLSSSQGTIETSLQDIDSRLSPGGSLADAWAHQEGTHPKDRNVEKLQVLLNCMTEIYYQFKKDKAERRLAYNEEQIHKFDKQKLYYHATKAMTHFTDECVKKYEAFLNKSEEWIRKMLHLRKQLLSLTNQCFDIEEEVSKYQEYTNELQETLPQKMFTASSGIKHTMTPIYPSSNTLVEMTLGMKKLKEEMEGVVKELAENNHILERFGSLTMDGGLRNVDCL [TBK1]	-0.00961	-0.105	0.969	1.43	48.6	48.6
MQWNVPRTVSRLARRTCLEPHNAGLFGHCQNVKGPLLLYNAESKVVLVQGPQKQWLHLSAAQCVAKERRPLDAHPPQPGVLRHKQGKQHVSFRRVFSSSATAQGTPEKKEEPDPLQDKSISLYQRFKKTFRQYGKVLIPVHLITSGVWFGTFYYAALKGVNVVPFLELIGLPDSVVSILKNSQSGNALTAYALFKIATPARYTVTLGGTSVTVKYLRSHGYMSTPPPVKEYLQDRMEETKELITEKMEETKDRLTEKLQETKEKVSFKKKVE [FAM210A]	0.234	-0.102	-3.65	-2.22	55.7	54.9
MRAVLAREMDGRRVLGRFWSGWRRGLGVRPVPEDAGFGTEARHQRQPRGSCQRSGPLGDQPFAGLLPKNLSREELVDALRAAVVDRKGPLVTLNKPQGLPVTGKPGELTLFSVLPELSQSLGLREQELQVVRASGKESSGLVLLSSCPQTASRLQKYFTHARRAQRPTATYCAVTDGIPAASEGKIQAALKLEHIDGVNLTVPVKAPSRKDILEGVKKTLSHFRVVATGSGCALVQLQPLTVFSSQLQVHMVLQLCPVLGDHMYSARVGTVLGQRFLLPAENNKPQRQVLDEALLRRLHLTPSQAAQLPLHLHLHRLLLPGTRARDTPVELLAPLPPYFSRTLQCLGLRLQ [RPUSD3]	0.193	0.0294	-1.94	0.774	50.1	51.2
MRAVRRGLREGGAMAAARDPPEVSLREATQRKLRRFSELRGKLVARGEFWDIVAITAADEKQELAYNQQLSEKLKRKELPLGVQYHVFVDPAGAKIGNGGSTLCALQCLEKLYGDKWNSFTILLIHSGGYSQRLPNASALGKIFTALPLGNPIYQMLELKLAMYIDFPLNMNPGILVTCADDIELYSIGEFEFIRFDKPGFTALAHPSSLTIGTTHGVFVLDPFDDLKHRDLEYRSCHRFLHKPSIEKMYQFNAVCRPGNFCQQDFAGGDIADLKLDSDYVYTDSLFYMDHKSAKMLLAFYEKIGTLSCEIDAYGDFLQALGPGATVEYTRNTSNVIKEESELVEMRQRIFHLLKGTSLNVVVLNNSKFYHIGTTEEYLFYFTSDNSLKSELGLQSITFSIFPDIPECSGKTSCIIQSILDSRCSVAPGSVVEYSRLGPDVSVGENCIISGSYILTKAALPAHSFVCSLSLKMNRCLKYATMAFGVQDNLKKSVKTLSDIKLLQFFGVCFLSCLDVWNLKVTEELFSGNKTCLSLWTARIFPVCSSLSDSVITSLKMLNAVKNKSAFSLNSYKLLSIEEMLIYKDVEDMITYREQIFLEISLKSSLM [FPGT]	0.115	-0.353	1.19	2.29	54.4	55.1
MRECISVHVGQAGVQMGNACWELYCLEHGIQPDGQMPSDKTIGGGDDSFTTFFCETGAGKHVPRAVFVDLEPTVIDEIRNGPYRQLFHPEQLITGKEDAANNYARGHYTIGKEIIDPVLDRIRKLSDQCTGLQGFLVFHSFGGGTGSGFTSLLMERLSVDYGKKSKLEFSIYPAPQVSTAVVEPYNSILTTHTTLEHSDCAFMVDNEAIYDICRRNLDIERPTYTNLNRLISQIVSSITASLRFDGALNVDLTEFQTNLVPYPRIHFPLATYAPVISAEKAYHEQLSVAEITNACFEPANQMVKCDPRHGKYMACCLLYRGDVVPKDVNAAIAAIKTKRSIQFVDWCPTGFKVGINYQPPTVVPGGDLAKVQRAVCMLSNTTAIAEAWARLDHKFDLMYAKRAFVHWYVGEGMEEGEFSEAREDMAALEKDYEEVGIDSYEDEDEGEE [TUBA4A]	0.111	-0.138	-0.775	-2.94	55.6	54.2
MREIVHIQAGQCGNQIGTKFWEVISDEHGIDPAGGYVGDSALQLERINVYYNESSSQKYVPRAALVDLEPGTMDSVRSGPFGQLFRPDNFIFGQTGAGNNWAKGHYTEGAELVDAVLDVVRKECEHCDCLQGFQLTHSLGGGTGSGMGTLLISKIREEFPDRIMNTFSVMPSPKVSDTVVEPYNATLSVHQLVENTDETYCIDNEALYDICFRTLKLTTPTYGDLNHLVSATMSGVTTSLRFPGQLNADLRKLAVNMVPFPRLHFFMPGFAPLTSRGSQQYRALTVPELTQQMFDARNMMAACDPRHGRYLTVATVFRGPMSMKEVDEQMLAIQSKNSSYFVEWIPNNVKVAVCDIPPRGLKMASTFIGNSTAIQELFKRISEQFSAMFRRKAFLHWFTGEGMDEMEFTEAESNMNDLVSEYQQYQDATANDGEEAFEDEEEEIDG [TUBB6]	0.0985	-0.124	-0.862	-2.31	54.8	53.8
MREYKVVVLGSGGVGKSALTVQFVTGTFIEKYDPTIEDFYRKEIEVDSSPSVLEILDTAGTEQFASMRDLYIKNGQGFILVYSLVNQQSFQDIKPMRDQIVRVKRYEKVPLILVGNKVDLEPEREVMSSEGRALAQEWGCPFMETSAKSKSMVDELFAEIVRQMNYSSLPEKQDQCCTTCVVQ [RAP2C]	0.0732	-0.0697	1.5	-1.73	56.9	55.4
MRGEQGAAGARVLQFTNCRILRGGKLLREDLWVRGGRILDPEKLFFEERRVADERRDCGGRILAPGFIDVQINGGFGVDFSQATEDVGSGVALVARRILSHGVTSFCPTLVTSPPEVYHKVVPQIPVKSGGPHGAGVLGLHLEGPFISREKRGAHPEAHLRSFEADAFQDLLATYGPLDNVRIVTLAPELGRSHEVIRALTARGICVSLGHSVADLRAAEDAVWSGATFITHLFNAMLPFHHRDPGIVGLLTSDRLPAGRCIFYGMIADGTHTNPAALRIAHRAHPQGLVLVTDAIPALGLGNGRHTLGQQEVEVDGLTAYVAGTKTLSGSIAPMDVCVRHFLQATGCSMESALEAASLHPAQLLGLEKSKGTLDFGADADFVVLDDSLHVQATYISGELVWQADAARQ [AMDHD2]	-0.0483	-0.0923	-1.01	-2.12	55.1	54.3
MRGFGPGLTARRLLPLRLPPRPPGPRLASGQAAGALERAMDELLRRAVPPTPAYELREKTPAPAEGQCADFVSFYGGLAETAQRAELLGRLARGFGVDHGQVAEQSAGVLHLRQQQREAAVLLQAEDRLRYALVPRYRGLFHHISKLDGGVRFLVQLRADLLEAQALKLVEGPDVREMNGVLKGMLSEWFSSGFLNLERVTWHSPCEVLQKISEAEAVHPVKNWMDMKRRVGPYRRCYFFSHCSTPGEPLVVLHVALTGDISSNIQAIVKEHPPSETEEKNKITAAIFYSISLTQQGLQGVELGTFLIKRVVKELQREFPHLGVFSSLSPIPGFTKWLLGLLNSQTKEHGRNELFTDSECKEISEITGGPINETLKLLLSSSEWVQSEKLVRALQTPLMRLCAWYLYGEKHRGYALNPVANFHLQNGAVLWRINWMADVSLRGITGSCGLMANYRYFLEETGPNSTSYLGSKIIKASEQVLSLVAQFQKNSKL [MLYCD]	0.0216	-0.194	-0.712	-1.19	52.7	54.3
MRGPPAWPLRLLEPPSPAEPGRLLPVACVWAAASRVPGSLSPFTGLRPARLWGAGPALLWGVGAARRWRSGCRGGGPGASRGVLGLARLLGLWARGPGSCRCGAFAGPGAPRLPRARFPGGPAAAAWAGDEAWRRGPAAPPGDKGRLRPAAAGLPEARKLLGLAYPERRRLAAAVGFLTMSSVISMSAPFFLGKIIDVIYTNPTVDYSDNLTRLCLGLSAVFLCGAAANAIRVYLMQTSGQRIVNRLRTSLFSSILRQEVAFFDKTRTGELINRLSSDTALLGRSVTENLSDGLRAGAQASVGISMMFFVSPNLATFVLSVVPPVSIIAVIYGRYLRKLTKVTQDSLAQATQLAEERIGNVRTVRAFGKEMTEIEKYASKVDHVMQLARKEAFARAGFFGATGLSGNLIVLSVLYKGGLLMGSAHMTVGELSSFLMYAFWVGISIGGLSSFYSELMKGLGAGGRLWELLEREPKLPFNEGVILNEKSFQGALEFKNVHFAYPARPEVPIFQDFSLSIPSGSVTALVGPSGSGKSTVLSLLLRLYDPASGTISLDGHDIRQLNPVWLRSKIGTVSQEPILFSCSIAENIAYGADDPSSVTAEEIQRVAEVANAVAFIRNFPQGFNTVVGEKGVLLSGGQKQRIAIARALLKNPKILLLDEATSALDAENEYLVQEALDRLMDGRTVLVIAHRLSTIKNANMVAVLDQGKITEYGKHEELLSKPNGIYRKLMNKQSFISA [ABCB10]	-0.0973	-0.029	0.476	-0.874	53.8	54
MRKPDSKIVLLGDMNVGKTSLLQRYMERRFPDTVSTVGGAFYLKQWRSYNISIWDTAGREQFHGLGSMYCRGAAAIILTYDVNHRQSLVELEDRFLGLTDTASKDCLFAIVGNKVDLTEEGALAGQEKEECSPNMDAGDRVSPRAPKQVQLEDAVALYKKILKYKMLDEQDVPAAEQMCFETSAKTGYNVDLLFETLFDLVVPMILQQRAERPSHTVDISSHKPPKRTRSGCCA [RAB20]	0.0752	-0.187	3.91	1.44	54.4	53.8
